According to PMC3367397 (Nature, 2012):

Biological target: T1, Angptl2-FLAG (human, UniProt Q9UKU9 23-493)
T1 sequence (looked up): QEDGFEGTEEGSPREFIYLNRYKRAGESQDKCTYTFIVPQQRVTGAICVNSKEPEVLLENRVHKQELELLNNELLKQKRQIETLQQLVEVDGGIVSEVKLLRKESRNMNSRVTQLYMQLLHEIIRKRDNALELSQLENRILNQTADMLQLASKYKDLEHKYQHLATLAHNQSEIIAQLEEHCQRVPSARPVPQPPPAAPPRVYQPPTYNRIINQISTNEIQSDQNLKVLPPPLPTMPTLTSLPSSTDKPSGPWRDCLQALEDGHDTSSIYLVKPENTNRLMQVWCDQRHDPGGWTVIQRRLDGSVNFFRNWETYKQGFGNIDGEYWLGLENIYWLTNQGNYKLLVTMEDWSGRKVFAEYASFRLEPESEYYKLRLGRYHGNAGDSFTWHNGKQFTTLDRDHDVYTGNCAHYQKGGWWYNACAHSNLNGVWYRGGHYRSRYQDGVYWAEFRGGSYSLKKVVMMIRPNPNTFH
Experiment: co-IP

B1: LILRB2 extracellular domain (ECD) fused to human IgG-Fc (Fc fusion, UniProt Q8N423 22-460, looked up)
chain: QTGTIPKPTLWAEPDSVITQGSPVTLSCQGSLEAQEYRLYREKKSASWITRIRPELVKNGQFHIPSITWEHTGRYGCQYYSRARWSELSDPLVLVMTGAYPKPTLSAQPSPVVTSGGRVTLQCESQVAFGGFILCKEGEDEHPQCLNSQPHARGSSRAIFSVGPVSPNRRWSHRCYGYDLNSPYVWSSPSDLLELLVPGVSKKPSLSVQPGPVMAPGESLTLQCVSDVGYDRFVLYKEGERDLRQLPGRQPQAGLSQANFTLGPVSRSYGGQYRCYGAHNLSSECSAPSDPLDILITGQIRGTPFISVQPGPTVASGENVTLLCQSWRQFHTFLLTKAGAADAPLRLRSIHEYPKYQAEFPMSPVTSAHAGTYRCYGSLNSDPYLLSHPSEPLELVVSGPSMGSSPPPTGPISTPGPEDQPLTPTGSDPQSGLGRHLGV
binding result: binds
